In article PMC4558205 (Structure (London, England : 1993), 2015):

Tests used:
[1] = molecular target: Mj0480, archaeal DUF106 protein from Methanocaldococcus jannaschii (Methanocaldococcus jannaschii, UniProt Q57904); experiment: SEC
[2] = molecular target: the molecule itself; experiment: crystal structure

| stoichiometry N [1] | Binder | binding result [2] |
| --- | --- | --- |
| 1 | synthetic antibody fragment (sAB) M1 (Fab, V domains shown) VH: EVQLVESGGGLVQPGGSLRLSCAASGFNFSSSSIHWVRQAPGKGLEWVASISPSYGYTYYADSVKGRFTISADTSKNTAYLQMNSLRAEDTAVYYCARGIWSYWYMVYPHDNYGMDYWGQGTLVTVSS VL: DIQMTQSPSSLSASVGDRVTITCRASQSVSSAVAWYQQKPGKAPKLLIYSASSLYSGVPSRFSGSRSGTDFTLTISSLQPEDFATYYCQQSSSRPVTFGQGTKVEIK | – |
| – | Mj0480, archaeal DUF106 protein from Methanocaldococcus jannaschii (natural protein, UniProt Q57904 1-198, looked up) MFGSIFDIYYKTLDAIFMPIIKVLHPALAILIIAIIVSLIINIATKLLVDQKRVAELKKEIQEFQVKFKKMSKNPEMMEKLQEEQQRIMQLNAELMKMSFRPMIYTWVPIILIFIYLRHVYGFGGVYQELNPGWNGVVVYLPIILSKILFIDFWHWLGSIFYKGGFKIVSNTALGWLGWYILCSFATSTVLRKILGIK | binds |
